Consider four substances from patent US20150132307A1.

In assay [1] the target is recombinant human IL-17 (Peprotech #200-17) (human) (UniProt Q16552). As to the kind of experiment: cell-based or functional assay.
Assay [2] has the same target. Briefly: ELISA, coated IL-17 subtype 0.5 µg/ml, antibody 10 µg/ml, OD 405/492 nm. (An ELISA detects its analyte on a solid surface through an enzyme-linked reagent.)
In a further assay the target is Human IL17B (human) (UniProt Q9UHF5). Briefly: ELISA, coated IL-17 subtype, antibody 10 µg/ml, OD 405/492 nm.
In the next assay the target is Human IL17C (human) (UniProt Q9P0M4). The description is as above.
A further assay concerns the target Human IL17D (human) (UniProt Q8TAD2). The assay is described as above.
The target in the next assay is Human IL17E (human) (UniProt Q9H293). The assay is described as above.
For another assay, the target named is Human IL17F (human) (UniProt Q96PD4). The assay is described as above.
For assay [3], the target named is cynomolgous IL-17A (cynomolgous). As to the kind of experiment: binding ELISA according to example 2; human and humanized IL17 antibodies compared (NVP-AIN-497 = 100).
Assay [4] deals with recombinant human IL-17 (Peprotech #200-17) (human) (UniProt Q16552). The assay is described as above.
Assay [5] has as its target cynomolgous IL-17A (cynomolgous). As to the kind of experiment: binding ELISA according to example 2; mouse IL17 antibodies compared (Mab 317 = 100).
Assay [6] addresses recombinant human IL-17 (Peprotech #200-17) (human) (UniProt Q16552). The assay is described as above.

recombinant human IL-17 (Peprotech #200-17) (human), sequence (Q16552 20-155 limits assumed): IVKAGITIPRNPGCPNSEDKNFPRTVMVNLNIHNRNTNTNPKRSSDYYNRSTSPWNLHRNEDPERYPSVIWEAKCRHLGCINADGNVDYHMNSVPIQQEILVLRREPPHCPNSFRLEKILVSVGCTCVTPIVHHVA
Human IL17E (human), sequence (Q9H293 33-177 limits assumed): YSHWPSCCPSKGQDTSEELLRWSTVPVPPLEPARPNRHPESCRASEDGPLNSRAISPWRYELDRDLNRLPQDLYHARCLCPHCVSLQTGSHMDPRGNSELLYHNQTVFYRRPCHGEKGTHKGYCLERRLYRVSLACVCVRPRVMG
Human IL17C (human), sequence (Q9P0M4 19-197 limits assumed): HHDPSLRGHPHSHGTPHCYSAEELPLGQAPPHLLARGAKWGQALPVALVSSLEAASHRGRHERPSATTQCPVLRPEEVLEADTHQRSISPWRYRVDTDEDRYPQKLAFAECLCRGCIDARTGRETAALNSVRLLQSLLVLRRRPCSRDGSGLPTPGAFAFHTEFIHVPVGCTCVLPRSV
Human IL17F (human), sequence (Q96PD4 31-163 limits assumed): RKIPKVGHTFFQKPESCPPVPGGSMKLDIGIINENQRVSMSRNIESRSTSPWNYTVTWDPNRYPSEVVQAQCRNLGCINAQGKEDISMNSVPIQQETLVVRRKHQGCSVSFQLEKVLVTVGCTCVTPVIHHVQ
Human IL17B (human), sequence (Q9UHF5 21-180 limits assumed): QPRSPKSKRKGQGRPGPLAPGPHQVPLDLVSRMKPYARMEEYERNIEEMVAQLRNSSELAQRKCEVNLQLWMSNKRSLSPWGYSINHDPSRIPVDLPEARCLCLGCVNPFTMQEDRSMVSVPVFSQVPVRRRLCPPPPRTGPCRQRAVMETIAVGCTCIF
Human IL17D (human), sequence (Q8TAD2 16-202 limits assumed): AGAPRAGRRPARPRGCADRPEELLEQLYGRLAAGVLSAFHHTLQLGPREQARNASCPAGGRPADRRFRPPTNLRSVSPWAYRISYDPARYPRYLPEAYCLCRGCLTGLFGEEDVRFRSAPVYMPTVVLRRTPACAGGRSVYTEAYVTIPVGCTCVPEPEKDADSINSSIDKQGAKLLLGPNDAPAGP

In the case of MAB 317 of R&D Systems (antibody), the IL-6 Inhibition IC50 (nM) (CCD-25SK cells, IL-17A + TNF-alpha) in assay [1] worked out at 2.8 nM. The Binding (IL-17A binding set as 100) (% of IL-17A binding) in [2] stood at 100.
As for “Mab 16-7178-85 of eBioscience (antibody)”, the Binding (IL-17A binding set as 100) (% of IL-17A binding) with Human IL17B (human) was determined as 7; with Human IL17C (human), 97; with Human IL17D (human), 6; with Human IL17E (human), 5; with Human IL17F (human) it was 5; in assay [2], 100.
As to NVP-AIN-497 (WO 2006/013107) (antibody), the Binding (IL-17A binding set as 100) (% of IL-17A binding) in the assay with Human IL17B (human) came to 2; with Human IL17C (human), 2; with Human IL17E (human), 3; with Human IL17F (human) it was 62; in assay [2], 100. In addition, in assay [3], the Relative binding to cynomolgous IL-17A was found to be 100%. Besides, in assay [4], the Relative binding to human IL-17A was found to be 100%.
As to eBio64CAP17 (antibody), the Relative binding to cynomolgous IL-17A in % in [5] was found to be 124%. In assay [6], the Relative binding to human IL-17A in % came to 122%.
